Measurements from patent US20120100575A1 (Biogen, published 2012).
Blank lines part the entries; values can stand above or below the binder they belong to.

Legend:
[1] = biological target: T1, FcγRI (CD64) on IFNγ-activated U937 cells (UniProt P12314 16-374, limits assumed); test: FcγRI bridging assay, FIG. 13 upper panel
T1 construct: whole, on cells; also called FcRγI
Experimental: (§1) Briefly, the FcγR bridging assay was performed by coating 96 well Maxisorb ELISA plates (Nalge-Nunc Rochester, N.Y., USA) with recombinant soluble human CD154 ligand (i.e., at a concentration of 1 μg/ml overnight at 4° C. in PBS; Karpusas, Hsu et al. 1995). Titrations of glycosylated or aglycosylated forms of anti-CD154 antibody (hu5c8) were then bound to CD154 for 30 minutes at 37° C., the plates were then washed, and the binding of fluorescently labeled U937 (CD64⁺) cells was measured. The U937 cells were grown in RPMI medium with 10% FBS, 10 mM HEPES, L-glutamine, and penicillin/streptomycin, split 1:2, and activated for one day prior to the assay with 1000 units/ml of IFNγ to increase Fc receptor (FcγRI) expression.
(§2) In the assays for both receptors, the Fc receptor-bearing cells were labeled with 2′,7′-bis-(2-carboxyethyl)-5-(and-6)-carboxyfluorescein acetoxymethyl ester (BCECF-AM) (Molecular Probes Eugene, Oreg., USA) for 20 minutes at 37° C. After washing to remove excess label, 1×10⁵ of the labeled cells were incubated in the assay for 30 minutes at 37° C. Unbound FcγR positive cells were removed by washing several times and plates were read on a microplate reader (Cytofluor 2350 Fluorescent Microplate Reader, Millipore Corporation Bedford, Mass., USA) at an excitation wavelength of 485 nm and an emission wavelength of 530 nm.

human C1q (Sigma C0660) [2] = biological target: T2, human C1q (Sigma C0660) (human, UniProt P02745 23-245; P02746 28-253; P02747 29-245); test: C1q bridging ELISA: antibody captured on plate-coated soluble human CD154, human C1q detected with sheep anti-C1q
T2 construct: The three subunits come from general knowledge of C1q; also called complement protein C1q
T2 sequence (P02745 23-245 limits assumed, chain 1 of 3): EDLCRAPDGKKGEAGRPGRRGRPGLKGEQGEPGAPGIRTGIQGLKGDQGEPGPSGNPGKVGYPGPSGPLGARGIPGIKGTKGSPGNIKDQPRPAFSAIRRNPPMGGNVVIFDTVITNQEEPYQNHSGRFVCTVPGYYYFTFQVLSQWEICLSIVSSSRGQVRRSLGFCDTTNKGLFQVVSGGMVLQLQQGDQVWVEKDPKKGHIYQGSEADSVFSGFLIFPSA
T2 sequence (P02746 28-253 limits assumed, chain 2 of 3): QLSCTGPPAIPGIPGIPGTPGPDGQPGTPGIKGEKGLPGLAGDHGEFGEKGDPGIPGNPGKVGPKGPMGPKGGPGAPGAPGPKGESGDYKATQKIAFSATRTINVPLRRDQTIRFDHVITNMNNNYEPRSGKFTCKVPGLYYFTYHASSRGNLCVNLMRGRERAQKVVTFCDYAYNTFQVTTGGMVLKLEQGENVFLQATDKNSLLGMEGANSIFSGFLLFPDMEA
T2 sequence (P02747 29-245 limits assumed, chain 3 of 3): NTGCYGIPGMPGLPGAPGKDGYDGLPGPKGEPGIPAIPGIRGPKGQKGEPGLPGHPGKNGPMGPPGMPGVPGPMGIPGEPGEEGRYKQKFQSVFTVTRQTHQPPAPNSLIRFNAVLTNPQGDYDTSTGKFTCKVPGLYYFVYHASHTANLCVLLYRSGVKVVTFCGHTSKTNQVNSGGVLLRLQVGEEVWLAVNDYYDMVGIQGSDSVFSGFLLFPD
Experimental: (§3) The C1q binding assay was performed by coating 96 well Maxisorb ELISA plates (Nalge-Nunc Rochester, N.Y., USA) with 50 μl recombinant soluble human CD154 ligand (Karpusas et al. Structure, 15;3(12):1426 (1995) at 10 μg/ml overnight at 4° C. in PBS. The wells were aspirated and washed three times with wash buffer (PBS, 0.05% Tween 20) and blocked for ≧1 h with 200 μl/well of block/diluent buffer (0.1 M Na₂HPO₄, pH 7, 0.1 M NaCl, 0.05% Tween 20, 0.1% gelatin). The antibody to be tested was diluted in block/diluent buffer starting at 15 μg/ml with 3-fold dilutions. 50 μl were added per well, and the plates incubated for 2 h at room temperature. After aspirating and washing as above, 50 μl/well of 2 μg/ml of Sigma human C1q (C0660) diluted in block/diluent buffer was added and incubated for 1.5 h at room temperature. After aspirating and washing as above, 50 μl/well of sheep anti C1q (Serotec AHP033), diluted 3,560-fold in block/diluent buffer, was added. After incubation for 1 h at room temperature, the wells were aspirated and washed as above. […] The absorbance was read at 450 nm with a Softmax PRO instrument, and Softmax software was used to determine the relative binding affinity (C value) with a 4-parameter fit.

human C1q (Sigma C0660) [3] = biological target: T2, human C1q (Sigma C0660); test: C1q bridging ELISA: antibody captured on plate-coated soluble human CD154, human C1q 2 µg/ml detected with sheep anti-C1q
Experimental: as §3

[4] = biological target: T1, FcγRI (CD64) on IFNγ-activated U937 …; test: FcγRI bridging assay: antibody captured on plate-coated soluble human CD154, binding of fluorescently labeled IFNγ-activated U937 (CD64+) cells
Experimental: as §1, §2

T1 sequence (P12314 16-374 limits assumed): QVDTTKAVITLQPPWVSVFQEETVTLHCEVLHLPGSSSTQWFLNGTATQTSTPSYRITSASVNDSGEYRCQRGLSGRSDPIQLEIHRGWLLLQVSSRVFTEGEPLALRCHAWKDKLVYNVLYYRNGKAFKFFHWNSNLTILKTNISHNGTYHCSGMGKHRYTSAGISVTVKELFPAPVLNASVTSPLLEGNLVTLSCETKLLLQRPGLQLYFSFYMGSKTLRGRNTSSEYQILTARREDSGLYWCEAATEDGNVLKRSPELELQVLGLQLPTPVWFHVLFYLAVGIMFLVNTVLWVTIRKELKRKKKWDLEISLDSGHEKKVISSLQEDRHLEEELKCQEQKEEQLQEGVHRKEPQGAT

- binding result [1]: binds
- binding result (human C1q (Sigma C0660) [2]): no binding
B1: hu5c8 IgG4 variant (S228P/T299A), aglycosylated (antibody)
heavy: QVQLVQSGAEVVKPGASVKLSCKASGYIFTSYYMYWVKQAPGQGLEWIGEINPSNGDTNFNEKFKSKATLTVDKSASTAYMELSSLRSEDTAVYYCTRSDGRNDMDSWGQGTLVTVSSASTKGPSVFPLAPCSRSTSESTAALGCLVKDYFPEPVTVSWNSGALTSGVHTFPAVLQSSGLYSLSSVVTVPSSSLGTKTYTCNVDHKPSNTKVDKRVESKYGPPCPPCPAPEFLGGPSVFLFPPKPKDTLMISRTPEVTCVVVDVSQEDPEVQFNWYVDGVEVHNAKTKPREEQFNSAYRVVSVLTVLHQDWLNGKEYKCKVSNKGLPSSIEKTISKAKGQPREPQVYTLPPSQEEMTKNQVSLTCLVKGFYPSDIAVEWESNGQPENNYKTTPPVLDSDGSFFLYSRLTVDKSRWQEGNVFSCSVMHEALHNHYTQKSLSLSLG
light: DIVLTQSPATLSVSPGERATISCRASQRVSSSTYSYMHWYQQKPGQPPKLLIKYASNLESGVPARFSGSGSGTDFTLTISSVEPEDFATYYCQHSWEIPPTFGGGTKLEIKRTVAAPSVFIFPPSDEQLKSGTASVVCLLNNFYPREAKVQWKVDNALQSGNSQESVTEQDSKDSTYSLSSTLTLSKADYEKHKVYACEVTHQGLSSPVTKSFNRGEC
notes: also called IgG4 T299A; aglycosyl IgG4 T299A antibody variant

- binding result (human C1q (Sigma C0660) [3]): binds
- binding result [4]: binds
B2: hu5c8 IgG1 (glycosylated parent anti-CD154 antibody) (antibody)
heavy: not shown
light: B1 light
notes: Expressed in EBNA 293 cells; also called hu5c8 antibody; glycosylated IgG1
